This assay addresses Toll-like Receptor 5 (UniProt O60602). Briefly: cell-based or functional assay.

The source of these data is patent publication US20070224205A1.

B1: ngSTF2.HA1-1His(PR8) (protein)
chain: AQVINTNSLSLLTQNNLQKSQSALGTAIERLSSGLRINSAKDDAAGQAIANRFTANIKGLTQASRNANDGISIAQTTEGALNEINNNLQRVRELAVQSAQSTNSQSDLDSIQAEITQRLNEIDRVSGQTQFNGVKVLAQDNTLTIQVGANDGETIDIDLKQINSQTLGLDSLNVQKAYDVKDTAVTTKAYANQGTTLDVSGLDDAAIKAATGGTQGTASVTGGAVKFDADNNKYFVTIGGFTGADAAKNGDYEVNVATDGTVTLAAGATKTTMPAGATTKTEVQELKDTPAVVSADAKNALIAGGVDATDANGAELVKMSYTDKNGKTIEGGYALKAGDKYYAADYDEATGAIKAKTTSYTAADGTTKTAANQLGGVDGKTEVVTIDGKTYQASKAAGHDFKAQPELAEAAAKTTENPLQKIDAALAQVDALRSDLGAVQNRFNSAITNLGNTVNQLSEARSRIEDSDYATEVSQMSRAQILQQAGTSVLAQANQVPQNVLSLLASGSGSGSSHNGKLCRLKGIAPLQLGKCNIAGWLLGNPECDPLLPVRSWSYIVETPNSENGICYPGDFIDYEELREQLSSVSSFERFEIFPKESSWPNHNTNGVTAACSHEGKSSFYRNLLWLTEKEGSYPKLKNSYVNKKGKEVLVLWGIHHPPNSKEQQNLYQNENAYVSVVTSNYNRRFTPEIAERPKVRDQAGRMNYYWTLLKPGDTIIFEANGNLIAPMYAFALSRGFGSGIITSQASMHECNTKCQTPLGAIQSSLPYQNIHPVTIGECPKYVRHHHHHH
Molecule B1 came in with a TLR activity (EC50, ng/ml); IL-8 secretion by HEK293 cells of 30 ng/mL.
